{"source": "patent US20220000762A1", "about": "“COMPOSITIONS FOR TREATING OXIDATIVE STRESS-ASSOCIATED SKIN DISEASES AND SKIN AGEING AND DIAGNOSIS OF OXIDATIVE STRESS-ASSOCIATED SKIN DISEASES” (priority 2019, published 2022)", "molecules": {"B1": {"name": "RoxP: radical oxygenase of Propionibacterium acnes, secreted antioxidant protein of C. acnes; SEQ ID NO: 1 for strain KPA171202 (protein)", "chain": "MFVQIAASLAAASSIALGIPGAATPIDESQLPVGPQVSVTDSAQHTGPFAASSPLTITVKPGAPCVRADGYQESMVTRVLDDKGHQVWTGTFDESKLIGGTGLGTATFHVGSPAAAFNFHGSERTTYRTLSYCAYPHYVNGTRERLSQVSVKTFMVDPALN", "modifications": "Cutibacterium acnes"}}, "key": {"[1]": {"experiment": "Deoxyribose (TBA-MDA) assay", "assay_type": "biochemical", "conditions": "2 mg/ml RoxP, 37° C., 1 h", "protocol": "Deoxyribose assay is a well-established method to measure generation of hydroxyl radicals in biological systems and for evaluating the ability of antioxidants to reduce .OH radical generation. Such assays are described for example in Gutteridge & Halliwell (Biochem J. 1988, vol. 253(3), 932-933) and references therein. In particular, deoxyribose incubated with H2O2 and Fe2^+ (or Fe3^+ plus a reductant) is degraded into products that can react to form thiobarbituric acid-malondialdehyde (classic TBA-MDA assay) chromogen. This reaction is driven by —OH radicals. A reduction in prevalence of .OH radicals will result in fewer formed complexes and lower absorbance.\nA reaction mixture containing 5 mM 2-deoxyribose, 100 μM FeCl3, 100 μM EDTA, 1 mM H2O2, and 7.6 μg/ml ascorbic acid in buffer A (20 mM KH2PO4—KOH, pH 7.4), including or not 2 mg/ml RoxP, in triplicate, was incubated at 37° C. for 1 h (total volume 1 ml). After incubation, 1% w/v TBA (thiobarbituric acid) in 50 mM NaOH, and 2-8% v/v TCA (trichloroacetic acid) was added, followed by incubation at 95° C. for 15 minutes, and reading of absorbance at 532 nm."}, "[2]": {"experiment": "Phenantroline assay", "assay_type": "biochemical", "conditions": "10 μg or 20 μg RoxP", "protocol": "Phenantroline chelates specifically Fe^2+ and generates absorbance at 550 nm.\nA reaction mixture containing 0.7 mM ammonium iron (II) sulfate hexahydrate (from 1.4 mM working solution in PBS) or 0.5 mM ammonium iron (III) sulfate dodecahydrate (from 1.0 mM working solution in PBS); and further containing 10 μg or 20 μg RoxP (from 2 mg/ml RoxP working solution in PBS) or equivalent volume of PBS as control; and further containing 0.75 mM phenatroline (from 5 mM working solution in PBS); total volume 200 μl; was incubated for 15 minutes at room temperature. Absorbance was read at 550 nm."}, "[3]": {"experiment": "RoxP interaction with coproporphyrin III (absorbance curves)", "assay_type": "binding", "conditions": "1 mg/ml RoxP (100 μl) with 50 μg Coproporphyrin", "protocol": "1 mg/ml RoxP (100 μl) was mixed with 50 μg Coproporphyrin (10 μl) and total volume was adjusted to 290 μl with PBS. Absorbance was measured at different wavelengths. The absorbance curves indicate binding of coproporphyrin III by RoxP (see FIG. 26)."}, "[4]": {"experiment": "Singlet Oxygen Sensor Green assay with UV-exposed porphyrins", "assay_type": "biochemical", "conditions": "1 μM Coproporphyrin III or Protoporphyrin IX, 10 min UV lamp, varying amounts of RoxP", "protocol": "The Singlet Oxygen Sensor Green dye was dissolved in Methanol and added in PBS buffer to reach a final concentration of 0.4 μM. This solution was distributed in a clear 96 well plate. To the wells 1 μM Coproporphyrin III, or 1 μM Protoporphyrin IX was added. Then varying amounts of RoxP were added. Each condition was set up as 4 replicas. Two of the replicas were covered by aluminium foil during the exposure, while two wells were exposed for 10 min to a UV lamp. After exposure, the fluorescence of the Singlet Oxygen Sensor Green dye was read out indicating the amount of singlet oxygen generated."}, "[5]": {"system": "healthy subjects", "experiment": "UVA/UVB-irradiation study in human subjects: skin color a* (erythema) by Chromameter", "assay_type": "in vivo", "conditions": "topical, 1.25 MED UV, n=7", "protocol": "The objective of this study was to assess the UV-protection potential of three compositions containing RoxP in 7 healthy subjects by measuring the antioxidative effect and skin erythema. Oxidative stress was induced by exposition to UVA- and UVB-light to the skin on the upper back. The anti-oxidative activity of the test products was evaluated by measurement of sebum lipid oxidization levels (concentration of squalene monohydroperoxide) of swab-samples from the skin surface. The potential was assessed after two applications of RoxP in comparison to water, an untreated control and one hydrophilic standard antioxidant (H1) after induction of a light sunburn (1.25 MED). […] Additionally, the UV-protection potential of the products was evaluated by measuring the produced erythema (Chromameter). […]\nErythema was evaluated (Chromameter) at t1=baseline before irradiation, t2=30 to 50 minutes after irradiation, and t3=16 to 24 hours after irradiation. Squalene monohydroperoxide (SQOOH) was quantified at 25 to 45 minutes after irradiation. […]\nOn Day 2, subjects returned to the Study Site 20±4 hours after irradiation. […] The reading of the MED was performed and the irradiation time for 1 MED was determined. The correct dose for the irradiation of test areas was calculated by multiplying the irradiation dose of 1 MED with the factor for irradiation (1.25). […]"}}}
{"molecule": "B1", "values": [{"measurement": "absorbance at 532 nm (generation of .OH radicals)", "setting": "[1]", "value": "reduced"}, {"measurement": "reduction of Fe^3+ to Fe^2+ (absorbance at 550 nm)", "setting": "[2]; 0.5 mM ammonium iron (III) sulfate, 15 minutes", "value": "reduced Fe^3+ to Fe^2+"}, {"measurement": "effect on reaction when only Fe^2+ was present", "setting": "[2]; 0.7 mM ammonium iron (II) sulfate", "value": "did not affect"}, {"measurement": "binding of coproporphyrin III", "setting": "[3]", "value": "binding"}, {"measurement": "generation of radicals formed through the porphyrins (singlet oxygen)", "setting": "[4]", "value": "efficiently inhibited"}, {"measurement": "increase of skin color a* (median)", "setting": "[5]; during 24 hours, water control 6 units", "value": 3.4, "unit": "units"}, {"measurement": "erythema 30-50 min after UV irradiation", "setting": "[5]", "value": "less erythrema than the water control"}]}
